System: Nlrc5 and Nlrc5 target genes
Experiment: Expression of antigen presentation genes / surface MHCI in B16 cells
Type: cell-based, mouse
Details: B16 cells stimulated 24 hr (FIGS. 13E-G)

B1: interferon-gamma: interferon gamma (R&D Systems) used to stimulate cells (protein, UniProt P01579 24-161, looked up)
Interferon gamma: QDPYVKEAENLKKYFNAGHSDVADNGTLFLGILKNWKEESDRKIMQSQIVSFYFKLFKNFKDDQSIQKSVETIKEDMNVKFFNSNKKKRDDFEKLTNYSVTDLNVQRKAIHELIQVMAELSPAAKTGKRKRSQMLFRG
B1 was tested, and the “expression of PSMB9 and surface expression of MHCI (H-2Kb)” value was “increased”.

— patent US20230301998A1, “METHODS AND COMPOSITIONS FOR INDUCTION OF ANTITUMOR IMMUNITY” (Sanford Burnham Prebys Medical Discovery Institute, priority 2020, published 2023)
